These results are taken from the supplement of paper PMC10567573.

B1: SPOPL (parent)
chain: AKREETKAMESQRAYRFVQGKDWG
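Also: lentivirally expressed fusions sorted by FACS into six bins by GFP to DsRed ratio, PSI derived from sequencing read proportions per bin multiplied by bin number.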

Variants of B1 are the subject of the data set. Kind of data set: protein stability index of a GFP-peptide fusion (GPS, HEK-293T) (PSI 1-6); higher = more stable. Particulars: c terminus: a fixed tail appended.
Regarding AKREETKAMESQRAYRFDQGKDWG [V18D], the protein stability index came to 4.05. In the case of AKREETKAMESQRAYRFHQGKDWG [V18H] it was 2.84; in that of AKREETKAMESQRAYRFLQGKDWG [V18L], 3.51; in that of AKREETKAMESQRAYRFTQGKDWG [V18T], 3.96. In the case of AKREETKAMESQRAYRFSQGKDWG [V18S] it was 4.19; in that of AKREETKAMESQRAYRFFQGKDWG [V18F], 3.32; in that of AKREETKAMESQRAYRFMQGKDWG [V18M], 3.42. In the case of AKREETKAMESQRAYRFYQGKDWG [V18Y] it was 3.78. On to AKREETKAMESQRAYRFWQGKDWG [V18W], for which the protein stability index stood at 2.43. Take AKREETKAMESQRAYRFEQGKDWG [V18E]: the protein stability index was determined as 4.15.

With AKREETKAMESQRAYRFQQGKDWG [V18Q], the protein stability index was determined as 3.16. Under AKREETKAMESQRAYRFGQGKDWG [V18G] stands 3.67; under AKREETKAMESQRAYRFRQGKDWG [V18R], 3.99; under AKREETKAMESQRAYRFIQGKDWG [V18I], 2.66. In the case of AKREETKAMESQRAYRFPQGKDWG [V18P] it was 4.07; in that of AKREETKAMESQRAYRFNQGKDWG [V18N], 4.14.

For the variant AKREETKAMESQRAYRFKQGKDWG [V18K], the protein stability index worked out at 4.13. Consider AKREETKAMESQRAYRFVQGKPWG [D22P], for which the protein stability index was determined as 3.18. In the case of AKREETKAMESQRAYRFVQGKSWG [D22S] it was 3.42. Take AKREETKAMESQRAYRFVQGKWWG [D22W]: the protein stability index was 2.55. In the case of AKREETKAMESQRAYRFVQGKCWG [D22C] it was 3.13. With AKREETKAMESQRAYRFVQGKRWG [D22R], the protein stability index is 4.09. In the case of AKREETKAMESQRAYRFVQGKYWG [D22Y] it was 2.76. Under AKREETKAMESQRAYRFVQGKHWG [D22H] stands 3.1; under AKREETKAMESQRAYRFVQGKFWG [D22F], 2.94. In the case of AKREETKAMESQRAYRFVQGKAWG [D22A] it was 3.14.

In the case of AKREETKAMESQRAYRFVQGKLWG [D22L], the protein stability index was 2.94. In the case of AKREETKAMESQRAYRFVQGKVWG [D22V] it was 3.82; in that of AKREETKAMESQRAYRFVQGKIWG [D22I], 3.4; in that of AKREETKAMESQRAYRFVQGKNWG [D22N], 2.74. AKREETKAMESQRAYRFVQGKQWG [D22Q]: the protein stability index was 3.18.

Take AKREETKAMESQRAYRFVQGKMWG [D22M]: the protein stability index was 2.95. In the case of AKREETKAMESQRAYRFVQGKGWG [D22G] it was 3.96; in that of AKREETKAMESQRAYRFVQGKEWG [D22E], 3.17. Under AKREETKAMESQRAYRFVQGKTWG [D22T] stands 3.86.

Turning to AKREETKAMESQRAYRFVQGKKWG [D22K], the protein stability index was 3.77. For the variant AKREETKAMESQRAYRFVQCKDWG [G20C], the protein stability index stood at 2.97.

AKREETKAMESQRAYRFVQPKDWG [G20P]: the protein stability index turned out to be 2.83. Under AKREETKAMESQRAYRFVQWKDWG [G20W] stands 2.72; under AKREETKAMESQRAYRFVQDKDWG [G20D], 4.06; under AKREETKAMESQRAYRFVQRKDWG [G20R], 3.59. As to AKREETKAMESQRAYRFVQHKDWG [G20H], the protein stability index turned out to be 3.33. Under AKREETKAMESQRAYRFVQMKDWG [G20M] stands 2.58; under AKREETKAMESQRAYRFVQFKDWG [G20F], 3.49; under AKREETKAMESQRAYRFVQTKDWG [G20T], 3.41. Under AKREETKAMESQRAYRFVQIKDWG [G20I] stands 2.73. In the case of AKREETKAMESQRAYRFVQNKDWG [G20N] it was 3.76; in that of AKREETKAMESQRAYRFVQLKDWG [G20L], 2.88; in that of AKREETKAMESQRAYRFVQQKDWG [G20Q], 4.14.

Turning to AKREETKAMESQRAYRFVQVKDWG [G20V], the protein stability index is 3.19. Under AKREETKAMESQRAYRFVQEKDWG [G20E] stands 4.31.

In the case of AKREETKAMESQRAYRFVQKKDWG [G20K], the protein stability index was 3.64. Under AKREETKAMESQRAYRFVQYKDWG [G20Y] stands 3.13. Turning to AKREETKAMESQRAYRFVQSKDWG [G20S], the protein stability index was determined as 3.35. Under AKREETKAMESQRAYRFVQAKDWG [G20A] stands 3.33.

In the case of AKREETKAMESQRAYRFVQGKDCG [W23C], the protein stability index is 4.9. In the case of AKREETKAMESQRAYRFVQGKDAG [W23A] it was 4.8. Under AKREETKAMESQRAYRFVVGKDWG [Q19V] stands 2.37; under AKREETKAMESQRAYRFVYGKDWG [Q19Y], 2.77. On to AKREETKAMESQRAYRFVFGKDWG [Q19F], for which the protein stability index stood at 3.19.

Take AKREETKAMESQRAYRFVHGKDWG [Q19H]: the protein stability index is 3.04. In the case of AKREETKAMESQRAYRFVRGKDWG [Q19R] it was 3.93; in that of AKREETKAMESQRAYRFVEGKDWG [Q19E], 2.6; in that of AKREETKAMESQRAYRFVAGKDWG [Q19A], 1.15.

As to AKREETKAMESQRAYRFVLGKDWG [Q19L], the protein stability index stood at 2.15. Take AKREETKAMESQRAYRFVSGKDWG [Q19S]: the protein stability index was found to be 2.44. As for AKREETKAMESQRAYRFVNGKDWG [Q19N], the protein stability index was found to be 2.85. In the case of AKREETKAMESQRAYRFVPGKDWG [Q19P] it was 3.22; in that of AKREETKAMESQRAYRFVWGKDWG [Q19W], 2.38. Under AKREETKAMESQRAYRFVCGKDWG [Q19C] stands 2.68; under AKREETKAMESQRAYRFVIGKDWG [Q19I], 2.6.

Take AKREETKAMESQRAYRFVKGKDWG [Q19K]: the protein stability index was 3.43. For the variant AKREETKAMESQRAYRFVTGKDWG [Q19T], the protein stability index came out at 2.73.

Take AKREETKAMESQRAYRFVMGKDWG [Q19M]: the protein stability index amounted to 2.25. In the case of AKREETKAMESQRAYRFVDGKDWG [Q19D] it was 2.54. Consider AKREETKAMESQRAYRFVQGADWG [K21A], for which the protein stability index was 2.96. Under AKREETKAMESQRAYRFVQGWDWG [K21W] stands 3.44; under AKREETKAMESQRAYRFVQGLDWG [K21L], 2.67; under AKREETKAMESQRAYRFVQGDDWG [K21D], 3.99. Under AKREETKAMESQRAYRFVQGRDWG [K21R] stands 2.51.

Turning to AKREETKAMESQRAYRFVQGNDWG [K21N], the protein stability index came to 3.11. In the case of AKREETKAMESQRAYRFVQGVDWG [K21V] it was 3.1. In the case of AKREETKAMESQRAYRFVQGYDWG [K21Y] it was 3.08.

As to AKREETKAMESQRAYRFVQGPDWG [K21P], the protein stability index was found to be 2.4. Under AKREETKAMESQRAYRFVQGEDWG [K21E] stands 3.46. AKREETKAMESQRAYRFVQGSDWG [K21S]: the protein stability index worked out at 2.67.

As to AKREETKAMESQRAYRFVQGTDWG [K21T], the protein stability index turned out to be 3.04. In the case of AKREETKAMESQRAYRFVQGIDWG [K21I] it was 2.94; in that of AKREETKAMESQRAYRFVQGMDWG [K21M], 3.43; in that of AKREETKAMESQRAYRFVQGQDWG [K21Q], 3.02. In the case of AKREETKAMESQRAYRFVQGFDWG [K21F], the protein stability index amounted to 3.62.

With AKREETKAMESQRAYRFVQGCDWG [K21C], the protein stability index came to 3.28. In the case of AKREETKAMESQRAYRFVQGGDWG [K21G] it was 2.83; in that of AKREETKAMESQRAYRFVQGHDWG [K21H], 2.32.
